The text below walks through data of PMC6706415, “Inhibition of amyloid beta toxicity in zebrafish with a chaperone-gold nanoparticle dual strategy” (Nature Communications, 2019).

For this assay, the target named is T1, amyloid beta 42 monomers (UniProt P05067 672-713).
T1 construct: Aβ42, the 42-residue peptide derived from amyloid precursor protein (APP) by proteolysis; HFIP-treated Aβ was considered as Aβm; The peptide fibrillizes during 48 h incubations at 37 °C; also called Aβ42; Aβ; source: bought: Anaspec Inc., purity ≥ 95%; HFIP-treated
Put plainly: zeta potential + dynamic light scattering + TEM + CD; Aβ (100 µM; for TEM the ThT ratio, 50 µM Aβ to 6.25 µM βCas) with βCas or βCas AuNPs (12.5 µM βCas equivalent), 48 h at 37 °C in deionized water. As to conditions: both partners purified.

B1: β casein (natural protein, UniProt P02666 16-224, looked up)
chain: RELEELNVPGEIVESLSSSEESITRINKKIEKFQSEEQQQTEDELQDKIHPFAQTQSLVYPFPGPIPNSLPQNIPPLTQTPVVVPPFLQPEVMGVSKVKEAMAPKHKEMPFPKYPVEPFTESQSLTLTDVENLHLPLPLLQSWMHQPHQPLPPTVMFPPQSVLSLSQSKVLPVPQKAVPYPQRDMPIQAFLLYQEPVLGPVRGPFPIIV
notes: β casein (βCas); Free βCas, which forms micelles in water; Probably the milk protein, which is naturally phosphorylated (surmise); also called βCas micelles
Take B1: the binding result was “binds”.
